Experimental data published in paper PMC4933879.
Changes are numbered by the printed parent chain. Names and notes keep the numbering of the source.

B1: DARPin D1 H118R (protein)
chain: MRGSHHHHHHGSDLGKKLLEAARAGQDDEVRILMANGADVNATDASGLTPLHLAATYGHLEIVEVLLKHGADVNAIDIMGSTPLHLAALIGHLEIVEVLLKHGADVNAVDTWGDTPLRLAAIMGHLEIVEVLLKHGADVNAQDKFGKTAFDISIDNGNEDLAEILQKLN
B2: DARPin D1 N74S; I76S; I78L (protein)
chain: B1 chain with N74S, I76S, I78L, R118H
B3: DARPin D1 I78L (protein)
chain: B1 chain with I78L, R118H
B4: DARPin D1 H118R; I122V (protein)
chain: B1 chain with I122V
B5: DARPin D1 I32V (protein)
chain: B1 chain with I32V, R118H
B6: DARPin D1 F150Y (protein)
chain: B1 chain with R118H, F150Y
B7: DARPin D1 E127K (protein)
chain: B1 chain with R118H, E127K
B8: DARPin D1 F150Y; I152T; N158S (protein)
chain: B1 chain with R118H, F150Y, I152T, N158S
B9: DARPin D1 I32V; N74S; I76S; I78L; H118R; I122V; E127K; V131A; F150Y; I152T; N158S (protein)
chain: B1 chain with I32V, N74S, I76S, I78L, I122V, E127K, V131A, F150Y, I152T, N158S
B10: DARPin D1 I76S (protein)
chain: B1 chain with I76S, R118H
B11: DARPin D1 I122V (protein)
chain: B1 chain with R118H, I122V
B12: DARPin D1 N158S (protein)
chain: B1 chain with R118H, N158S
B13: DARPin D1 N74S (protein)
chain: B1 chain with N74S, R118H
B14: DARPin D1 I152T (protein)
chain: B1 chain with R118H, I152T
B15: DARPin D1 E127K; V131A (protein)
chain: B1 chain with R118H, E127K, V131A
B16: DARPin D1 V131A (protein)
chain: B1 chain with R118H, V131A
B17: DARPin D1 I152T; N158S (protein)
chain: B1 chain with R118H, I152T, N158S
B18: DARPin D1 H118R; I152T; N158S (protein)
chain: B1 chain with I152T, N158S

Assays:
[1] = biological target: T1, tubulin covalently linked to a biotinylated stathmin-like peptide; assay: ELISA (off-rate estimation); settings: chain shown with the change, incubation with 100 nM soluble tubulin to prevent rebinding, read off a plot
[2] = biological target: T1, tubulin covalently linked to a …; assay: ELISA; settings: chain shown with the change, buffer incubation after binding, read off a plot
[3] = 2 nM biotinylated peptide-coupled tubulin for coating, parent: est. 0.046
[4] = 10 nM biotinylated peptide-coupled tubulin for coating, parent: est. 0.11
[5] = 2 nM biotinylated peptide-coupled tubulin for coating, parent: est. 0.082
[6] = 10 nM biotinylated peptide-coupled tubulin for coating, parent: est. 0.32

Binder	response [1, 3]	response [1, 4]	response [2, 5]	response [2, 6]
B1	0.45 AU	0.76 AU	0.71 AU	0.76 AU
B2	–	0.18 AU	–	0.34 AU
B3	–	0.13 AU	–	0.4 AU
B4	–	0.69 AU	–	0.73 AU
B5	–	0.11 AU	–	0.31 AU
B6	–	0.13 AU	–	0.26 AU
B7	–	0.11 AU	–	0.42 AU
B8	–	0.69 AU	–	0.75 AU
B9	0.38 AU	0.74 AU	0.72 AU	0.74 AU
B10	–	0.15 AU	–	0.3 AU
B11	–	0.12 AU	–	0.22 AU
B12	0.045 AU	0.14 AU	0.15 AU	0.59 AU
B13	–	0.18 AU	–	0.28 AU
B14	0.075 AU	0.44 AU	0.48 AU	0.79 AU
B15	–	0.075 AU	–	0.31 AU
B16	–	0.1 AU	–	0.24 AU
B17	0.27 AU	–	0.61 AU	–
B18	0.57 AU	–	0.75 AU	–
